Patent US20050272653A1 (ACCELERON PHARMA, published 2005)

Target: T1, BSA (bovine, UniProt P02769 25-607)
T1 construct: Control analyte in the BiaCore experiment
Test: BiaCore CM5 chip, BMP3 pro-MuIgG2a amine coupled, BSA flowed over

T1 sequence (P02769 25-607 limits assumed): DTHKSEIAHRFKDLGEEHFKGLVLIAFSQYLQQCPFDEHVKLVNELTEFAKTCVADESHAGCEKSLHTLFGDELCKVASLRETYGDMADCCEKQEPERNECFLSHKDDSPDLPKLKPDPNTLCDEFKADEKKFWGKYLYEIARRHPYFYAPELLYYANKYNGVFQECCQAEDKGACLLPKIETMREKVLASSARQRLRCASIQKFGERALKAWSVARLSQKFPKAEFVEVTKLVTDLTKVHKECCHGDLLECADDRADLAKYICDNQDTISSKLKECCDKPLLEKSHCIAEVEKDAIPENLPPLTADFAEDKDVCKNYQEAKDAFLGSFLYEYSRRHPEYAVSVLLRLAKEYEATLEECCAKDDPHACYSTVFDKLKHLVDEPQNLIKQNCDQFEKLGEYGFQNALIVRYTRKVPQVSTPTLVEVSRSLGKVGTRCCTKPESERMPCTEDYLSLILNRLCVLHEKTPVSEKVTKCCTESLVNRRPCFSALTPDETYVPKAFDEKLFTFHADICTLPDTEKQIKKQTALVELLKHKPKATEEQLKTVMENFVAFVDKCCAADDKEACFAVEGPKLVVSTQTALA

B1: BMP3A propeptide-Murine IgG2a peptide Fc fusion protein (Fc fusion)
chain: ERPKPPFPELRKAVPGDRTAGGGPDSELQPQDKVSEHMLRLYDRYSTVQAARTPGSLEGGSQPWRPRLLREGNTVRSFRAAAAETLERKGLYIFNLTSLTKSENILSATLYFCIGELGNISLSCPVSGGCSHHAQRKHIQIDLSAWTLKFSRNQSQLLGHLSVDMAKSHRDIMSWLSKDITQFLRKAKENEEFLIGFNITSKGRQLPKRRLPFPEPYILVYANDAAISEPESVVSSLQGHRNFPTGTVPKWDSHIRAALSIERRKKRSTGVLLPLQNNELPGAEYQYKKDEVWEERKPYKTLQAQAPEKSKNKKKQRKGPHRKSQTLQFDEQTLKKARRK
notes: Expressed in HEK293 cells and purified on Protein A; highly glycosylated; also called BMP3 pro-MuIgG2a; BMP3 pro-MuIg2a; not shown: murine IgG2a Fc
  binding result: no binding
